Assay: yeast display, Sf9 membrane polyspecificity reagent, FACS + sequencing; frameworks hold sequencing errors
Outline: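 Polyreactivity labels are assigned by the sorting gate from which each nanobody was recovered. The gates were low and high (top ~1%), set on anti-HA fluorescence for expression and streptavidin fluorescence for reagent binding. Before sorting, galactose-induced (36–48 hours) yeast display cells were stained for 1 hour at 4 °C with 10% biotinylated, detergent-solubilized Sf9 membrane reagent.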

Sequence	polyreactivity (PSR sort gate)
QVQLVESGGGLVQAGGSLRLSCAASGSIFHYYAMGWYRQAPGKERELVAAISWSGGRTNYADSVKGRFTISRDNAKNTVYLQMNSLKPEDTAVYYCAAAERSYSGGGKIGKYYYWGQGTQVTVSS	high polyreactivity
QVQLVESGGGLVQAGGSLRLSCAASGSIFIANAMGWYRQAPGKERELVAAITLNGGSTYYADSVKGRFTISRDNAKNTVYLQMNSLKPEDTAVYYCAADWVWVAPQYWIDEYDYWGQGTQVTVSS	low polyreactivity
QVQLVESGGGLVQAGGSLRLSCAASGSIFIANAMGWYRQAPGKERELVASISSGGSTNYADSVKGRFTISRDNAKNTVYLQMNSLKPEDTAVYYCAADGTDDYGGDFYLWVDYWGQGTQVTVSS	low polyreactivity
QVQLVESGGGLVQAGGSLRLSCAASGSIFIAYGMVWYRQEPGKERELVAAITVSGGNTYYADSVKGRFTISRDNAKNTVYLQMNSLKPEDTAVYYCAADYWYYYGKVLYDYWGQGTQVTVSS	low polyreactivity
QVQLVESGGGLVQAGGSLRLSCAASGSIFIDYAMGWYRQAPGKERELVAAISWSGGSTYYADSVKGRFTISRDNAKNTVYLQMNSLKPEDTAVYYCAAYSHVSIWYDYDYWGQGTQVTVSS	low polyreactivity
QVQLVESGGGLVQAGGSLRLSCAASGSIFIGNTMGWYRPAPGNERELVATIRRSGSRTYYADSVKGRFTISRDNAKNTVYLQMNSLKPEDTAVYYCAADRLRTSGYKTIYDYWGQGTQVTVSS	low polyreactivity
QVQLVESGGGLVQAGGSLRLSCAASGSIFIGYAMGWYRQAPGKERELVAAISWSGDSTYYADSVKGRFTISRDNAKNTVYLQMNSLKPEDTAGYYCAADDLDYDNYYQITGEYDYWGQGTQVTVSS	high polyreactivity
QVQLVESGGGLVQAGGSLRLSCAASGSIFIGYAMGWYRQAPGKERELVASIRNGGSTNYADSVKGRFTITRDNAKNTVYLQMNSLKPEDTAVYYCAGRYPVFLVSFGFDYWGQGTQVTVSS	low polyreactivity
QVQLVESGGGLVQAGGSLRLSCAASGSIFIQYAMGWYRQAPGKERELVAAITSGGGSTYYADSVKGRFTISRDNAKNTVYLQMNSLKPEDTAVYYCAVDRTRRPAVPYVTLDRGYCGQGTQVTVSS	low polyreactivity
QVQLVESGGGLVQAGGSLRLSCAASGSIFIQYAMGWYSQAPGKERELVAAINSSGGRTYYADSVKGRFTISRDNAKNTVYLQMNSLKPEDTAVYYCAADPGSSFDWGQGTQVTVSS	low polyreactivity
QVQLVESGGGLVQAGGSLRLSCAASGSIFIRYAMGWYRQAPGKERELVASISRSGGSTYYADSVKGRFTISRDNAKNTVYLQMNSLKPEDTAVYYCAARRVRPNGYTSSPLDYWGQGTQVTVSS	high polyreactivity
QVQLVESGGGLVQAGGSLRLSCAASGSIFISYAMGWYRQAPGKERELVAAISSGGSTNYADSVKGRFTISRDNAKNTVYLQMNSLIPEDTAVYYCAAASAAGYDYWGQGTQVTVSS	low polyreactivity
QVQLVESGGGLVQAGGSLRLSCAASGSIFISYARGWYRQAPGKERELVAAITWSGDSTYYADSVKGRFTISRDNAKNTVYLQMNSLKPEDTAVYYCAADWYFRNQRGYYWGQGTQVTVSS	low polyreactivity
QVQLVESGGGLVQAGGSLRLSCAASGSIFITYAMGWYRQAPGKERELVAAIRDSGDRTYYADSVKGRFTISRDNAKNTVYLQMNSLKPEDTAVYYCNARWQKPLKYDYWGQGTQVTVSS	low polyreactivity
QVQLVESGGGLVQAGGSLRLSCAASGSIFIYAMGWYRQAPGKERELVATISWSGTSTYADSVKGRFTISRDNAKNTVYLQMNSLKPEDTAVYYCNKLKRTYYSSGYPHDYWGQGTQVTVSS	low polyreactivity
QVQLVESGGGLVQAGGSLRLSCAASGSIFIYNVMGWYRQAPGKERELVATIRGSGGSTYYADSVKGRFTISRDNAKNTVYLQMNSLKPEDTAVYYCARRDYPYQWGRAYNYWGQGTQVTVSS	high polyreactivity
QVQLVESGGGLVQAGGSLRLSCAASGSIFIYYAMGWYRQAPGKEREFVADISYSGDSTYYADSVKGRFTISRDNAKNTVYFQMNSLKPEDTAVYYCAADTWYDAGVYPYDYWGQGTQVTVSS	high polyreactivity
QVQLVESGGGLVQAGGSLRLSCAASGSIFIYYAMGWYRQAPGKERELVAAISWSGDRTYYADSVKGRFTISRDNAKNTVYLQMNSLKPEDTAVYYCAARVVTPSAFPRYYWGQGTQVTVSS	high polyreactivity
QVQLVESGGGLVQAGGSLRLSCAASGSIFIYYAMGWYRQAPGKERELVAAISYSDGDTYYADSVKGRFTISRDNAKNTVYLQMNSLKPEDTAVYYCAAEVPQYYDVGWEDYCGQGTQVTVSS	high polyreactivity
QVQLVESGGGLVQAGGSLRLSCAASGSIFIYYAMGWYRQAPGKEREMVADITFSAGTNTYYADSVKGRFTISRDNAKNTVYLQKNSLKPEDTAVYYCNADRGFIGSITEYDYWGQGTQVTVSS	low polyreactivity

Sequence	polyreactivity (PSR sort gate)
QVQLVESGGGLVQAGGSLRLSCAASGSIFIYYTMGWYRQAPGKEREFVASISWRGGRTYYADSVKGRFTISRDNAKNTVYLQMNSLKPEETAVYYCAAEQSRGIEFSYYSLYYWGQGTQVTVSS	high polyreactivity
QVQLVESGGGLVQAGGSLRLSCAASGSIFKDYAMGWYRQAPGKERELVASITSGGRTYADSVKGRFTISRDNAKNTVYLQMNSLKPEDTAVYYCNTAHSKAWQYDYWGQGTQVTVSS	high polyreactivity
QVQLVESGGGLVQAGGSLRLSCAASGSIFKFYAMGWYRQAPGKERELVAAISQSGGRTYYADSVKGRFTISRDNAKNTVYLQMNSLKPEDTAVYYCAKSVFPVYGRPSNLWFNYWGQGTQVTVSS	high polyreactivity
QVQLVESGGGLVQAGGSLRLSCAASGSIFKFYTMGWYRQAPGKERELVAAISSSDGSTHYADSVKGRFTISRDNAKNTVYLQMNSLKPEDTAVYYCARRRYSRYSVTRGNYWGQGTQVTVSS	high polyreactivity
QVQLVESGGGLVQAGGSLRLSCAASGSIFKGYAMGRYIQAPGKERELVAAISSSGGSTYYADSVKGRFTISRDNAKNTVYLQMNSLKPEDTAVYYCNTDRYYTYDYLGQGTQVTVSS	low polyreactivity
QVQLVESGGGLVQAGGSLRLSCAASGSIFKGYAMGWYRQAPGKERELVAAITYSGGSTYYADSVKGRFTISRDNAKNTVYLQMNSLKPEDTAVYYCAADSEQDNLRYYRWVWYYYWGQGTQVTVSS	low polyreactivity
QVQLVESGGGLVQAGGSLRLSCAASGSIFKGYDMGWYRQAPGKERELVAAISSGSTNYADSVKGRFTISRDNAKNTVYLQMNSLKPEDTAVYYCNADLGRATFYQRVVIERGGYWGQGTQVTVSS	low polyreactivity
QVQLVESGGGLVQAGGSLRLSCAASGSIFKIYAMGWYRQAPGKARELVATISINGGSTYYADSVKGRFTISRDNAKNTVYLQMNSLKPEDTAVYDCNKVNEYITSQDDYGGQGTQVTVSS	low polyreactivity
QVQLVESGGGLVQAGGSLRLSCAASGSIFKKYAMGWYRQAPGKERELVAAISSGGGSTYYADSVKGRFTISRDNAKNTVYLQMNSLKPEDTAVYYCNARIQYFKYRGYEYWGQGTQVTVSS	high polyreactivity
QVQLVESGGGLVQAGGSLRLSCAASGSIFKLYAMGWYRQAPGKERELVASISVSGGSTYYADSVKGRFTISRDNAKNTVYLQMNSLKPEDTAVYYCAAEKRSSIVGSGGNYWGQGTQVTVSS	low polyreactivity
QVQLVESGGGLVQAGGSLRLSCAASGSIFKNYAMGWYRQAPGKERELVASITTGASTNYADSVKGLFTISRDNAMNTVYLQMNSLKPEDSAVYYCAAYRPTYYAYYYWGQGTQVTVSS	high polyreactivity
QVQLVESGGGLVQAGGSLRLSCAASGSIFKQNAMGRYRQAPGKESELVSDITSCGGSTYYADSVKGRFTISRDNAKNTVYLQMNSLKPEDTAVYYCNVVETSLELGWQAFDYWGQGTQVTVSS	low polyreactivity
QVQLVESGGGLVQAGGSLRLSCAASGSIFKRYAMGWYRQAPGKERELVAAISRRGASTYYADSVKGRFTISRDNAKNTVYLQMNSLKPEDTAVYYCNAYLPRQGPSGRPRSQYDSWGQGTQVTVSS	high polyreactivity
QVQLVESGGGLVQAGGSLRLSCAASGSIFKSNAMGWYRQAPGKERELVAAISNGGITNYADSVKGRFTISRDNAKNTVFLQMNSLKPEDTAVYYCATSDVREIWVDYWGQGTQVTVSS	low polyreactivity
QVQLVESGGGLVQAGGSLRLSCAASGSIFKSYAMGWYRQAPGKERELVAAITWRSGRTYYADSVKGRFTISRDNAKNTVYLQMNSLKPEDTAVYYCAADDTSYYIYSYDYWGQGTQVTVSS	low polyreactivity
QVQLVESGGGLVQAGGSLRLSCAASGSIFKSYAMGWYRQAPGKERELVAVISDSGSTYYADSVKGRFTISRDNAKNTVYLQKNSLKPEDTAVYYCRGRGRRNEYWGQGTQVTVSS	high polyreactivity
QVQLVESGGGLVQAGGSLRLSCAASGSIFKSYAMGWYRQAPGKERELVAVISDSGSTYYADSVKGRFTISRDNAKNTVYLQMNSLKPEDTAVYYCRGRGRRNEYWGQGTQVTVSS	high polyreactivity
QVQLVESGGGLVQAGGSLRLSCAASGSIFKTNAMGWYRQAPRKERELVAGISNVGSTNYADSVKGRFTISRDNAKNTVYLQMNSLKPEDTAVYYCAAPYTSQTIPDYVRYFIEYDYWGQATQVTVSS	low polyreactivity
QVQLVESGGGLVQAGGSLRLSCAASGSIFKTYAMGWSRPAPGKERELVAAITSSGGSTYYADSVKGRFTISRDNAKNTVDLQMNSLKPEDTAVYDCAALSGQARRMYYWGQGTQVTVSS	high polyreactivity
QVQLVESGGGLVQAGGSLRLSCAASGSIFKVYAMGWYRQAPGKERELVASISYSGGSTYYADSVKGRFTISRDNAKNTVYLQMNSLKPEDTAVYYCNADTITYQGYDYGYWGQGTQVTVSS	low polyreactivity

Reference: the nanobody polyreactivity screen of Harvey et al. (2022)
